Results on 41 sequences are retold here after the nanobody polyreactivity screen of Harvey et al. (2022).

This series in a line: yeast display, Sf9 membrane polyspecificity reagent, FACS + sequencing; frameworks hold sequencing errors. The essentials:
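Using colony PCR, genes from sorted yeast display clones were amplified, then sequenced on MiSeq at 2 × 250 and filtered by CDR length. The clones had been stained with 10% biotinylated, detergent-solubilized Sf9 membrane reagent for 1 hour at 4 °C and sorted by FACS into low and high (top ~1%) gates on anti-HA and streptavidin fluorescence. Polyreactivity labels come from the gate of origin.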
Turning to “QVQLGESGGGLVQAGGSLRLSCAASGFIFEHYARGWYRQAPGTDTEFVARISWGGGSTYYADSVKGRFTISRDNAKNTVYLQMNSLKPEDTAVYYCHALEGVYFGYYPSDYWGQGTQVTVAS”, the “polyreactivity (PSR sort gate)” value is reported as “low polyreactivity”.
The same measure for “QVQLVESGGGLVQAGGSLRLSCAASGLIFTYYAMGWYRQAPGKEREMVAAISSSGVNTYYADSVKGRFTISRDNAKNTVYLQMNSLKPEYTAVYYCAAELQPSPVGGIIQYGFDYWGQGTQVTVSS”: “low polyreactivity”.
Take “QVQRVESRGVLVQAGGTLRLSCAASGISFGRNTMGWYRQAPLKERELVATIRSGTNYADSVKGRFTISRDNAKNTVDLQMNSLKPDDTAVDYCAVRYFGGRRSYYWGQGSQVTVSS”: the “polyreactivity (PSR sort gate)” value is recorded as “high polyreactivity”.
“QVQLVESGGGLVQAGGSLRLSCAASGRTFRKYTMGWYRQAPGKEREFVAAITYSGGSTYYADSVKGRFTISRDNAKNTGYLQMNSLKPEDTAVSYCFTRGGYYLYYSYYYWGQGTQVTVSS”: the “polyreactivity (PSR sort gate)” value is recorded as “high polyreactivity”.
In the case of “QVQLVESGGGLVQAGGSLRLICAASGRTFYRYAMGWYRQAPGKDRELVATISRSGGSTYYADSVKGRFTISRDNAKNTVYLQINSLKPEDTAVYYCAADIPSYYWWRAYDYWGQGTQVTVSS”, the “polyreactivity (PSR sort gate)” value is recorded as “low polyreactivity”.
In the case of “QVQLVESGGGLVQAGGSLRLSCAASGSIFDSYAMGWYRPEPGKERELVAAISSGGSTNYADSVKGRFTISRDNEKNTVYLQMNSLKPEDTAVYYCAADGSLDAYNYWGQGTQVTVSS”, the “polyreactivity (PSR sort gate)” value is reported as “low polyreactivity”.
The same measure for “QVQLVESGGGLVQAGGSLRLSCAASGITFGVYALGWSRQARGNERELVAAISVNGGSTYYADSVKGRYTISRDNAKNTVYLQMNSLKPEDTAVYYCAADVLYYIDDDSIIEYDYWGQGTQVTVSS”: “low polyreactivity”; for “QVQLVESGGGLVQAGGSLRLSCAASGRTFGQNTMGWYRQAPGIERELVAAINWSGGSTYYADSVKGRFTISRDIAKNTVYVQMNSLKPEDTAVYYCAVRGYWGQGTQVTVSS”: “low polyreactivity”.
Regarding “QVQLVESGGGLVQAGGSLRLSCAASGSIFRYYAMGWYRQAPGKERELVAAISGSGASTYYADSVKGRFTISRDNAKNTVYLQMNSLKPEDTEVYFCAAYRGPRHHYPSVYNWGYDYWGQGTQVTVSS”, the “polyreactivity (PSR sort gate)” value is reported as “high polyreactivity”.
The result for “QVQLVESGGGLVQAGGSLRLSCAASGNIFYNVMGWYRQAPGKERELVAVISSGDSTYYADSVKGRFTISRDNAKNTVYLQMNSLKPEDTAVYYCNAQWITSAYLLYSYDYWWGYDYWGQGTQVTVSS” reads “high polyreactivity”.
As to “QVQLVESGGGLVQAAGSLRLSCAASGRILDFYDMGWYRQAPGKERELVAAITSGTSTYYADSVKGRFTISRDNAKNTVYLQMNSMKPEDTAVYYCAAAHVPVGQYVYWYDYWGQGTQVTVSS”, the “polyreactivity (PSR sort gate)” value was “low polyreactivity”.
With “QVQLVESGGGLVQAGGSLRLSCAASGSTLVYNDMGWYRQAPGKEREFVAAIRSNDGSTYYADSVKGRFTISRDNAKNTVYLQMNSLKPEDTAVYYCNKDVWDGYDWPEFDYWGQGTQVTVSS”, the “polyreactivity (PSR sort gate)” value is on record as “low polyreactivity”.
The result for “QVQLVESGGGLVQAGGSLRLSCAASGNTFPVNAMGWYRQAPGKERDLVAAISRTGASTYYADSVKGRITISRDNAKNTVYLQMNSLKPEDTAVYYCAKYLKTPHNRRRVEALGYWGQGTQVTVSS” reads “high polyreactivity”; that for “QVQLVESGGGLVQAGGSLRLSCAASGFIFGGYAMGWYIQGHGKERELVAAISSSGGSTYYADSVKGRFTISRDNAKNSVYLQMNSLKPEDTAVYYCAKVGWSRRYYYWGQGTKVTVSS”, “high polyreactivity”; that for “QVHLQDSGVGLVQAGGSLRLSCAASGSIFGSGSMGWFRQAPGKERELVATINNGSSTYYADSVKGRFTISRDNAKNTVYLQMNSLKPEDTAVYYCAVYLYRLTFFYYWGQGNQVTVSS”, “high polyreactivity”.
As for “QVQLVESGGGLVQAGGSLRLSCAASGSIFSDYVMGWSRQAPGKERELVATISRGGGSTFYADSVKGRFTISRDTAKNTVYLQMNSLKPEDTAVYYCAAPPGPSGAKYDYWGQGTQVTVSS”, the “polyreactivity (PSR sort gate)” value was “low polyreactivity”.
The result for “QDQLVESGGGLVQAGGSLRLSCAASGSTDYTYDMGWYRQAPGKERELVASITSGGSTNYADSVKGRFTISRDNAKNTVYFQMNSVKPQDTAVYYCAVGTYTIYSGTLYDYKYYWGQGTQVTVSS” reads “low polyreactivity”.
The same measure for “QVQLVESGGGLVQAGGSLRLSCASSGITFGYYAMGWYRQAPGKESELGAARSGSGGSTYYADSVKGRFTISRDNAKNTVSLQMNSLKPEDTAVYDCAAEGPSNTLYWFSWEDYWGQGTQVTVSS”: “high polyreactivity”.
For the sequence “QVQLVESGGGLVQAGGSLRLSCAASGRTFRYYAMGWYRQAPGKERELVAAIDTSSGSTYYADSVKGRFTISRDNAKNTVYLQMNSLKPEDTAVYYCNATWWIPLIYDYWGQGTQVNVSS”, the “polyreactivity (PSR sort gate)” value was “low polyreactivity”.
The result for “QVQLVESGGGLVQAGGSLRLSCAASGFIFHWNAMGWYRQAPGKERELVAAITWRGTNTYYADSVKGRFTISRDNAKNTVYLQMNSLKPEDTAVYYCAGTRNPWPTSFDYWGQGTQVTVSS” reads “low polyreactivity”; that for “QVQRVESGGGLVQAVGSLRLSCPASGIISVCNARGWYRQAPGKERELVASINSGGSTNYADSVKGRFTISRDNAKNTVYLQMNSLKPEDTAVYYCARLHDIRSPYSGTPVRDLPDEDDYWGQGTQVTVSS”, “low polyreactivity”; that for “QVQLVESVGGLVQAGGSLRLSCAASGRIFRYYAMGWSRQAPGKERELVAGISRGTSTYYADSVKGRFTISRDNAKNTVYLQMNSLKPEDTAVYYCAKGSIQYFRPYTFYTWGQGTQVTVSS”, “high polyreactivity”.
Regarding “QVQLVESGRGLVQAGGSLRLSCPASGRTFSTNAMGWYRQAPGKEREFVAVISSSSGSTYYADSVKGRFTISRDNAKNTVYLQMNSLKPEDTAVYYCAAGYRYRVSYSVYEFYYWGQGTQVTVSS”, the “polyreactivity (PSR sort gate)” value is reported as “high polyreactivity”.
The same measure for “QVQLVESGGGLVQAGGSLRLSCAASGITFLFYARGWYRKAPGKERELVAAISSGDNTYYADSVKGRFTISRDNGKNTVYLQMKSLKPDDTAVYYCAAEKYGYDYWGQGTQVTVSS”: “low polyreactivity”.
Consider “QVQLVESGGGLVQAGGSLRLSCAASGSIFNGYDMGWYRQAPGKERELVAAISLSGDSTYYADSVKGRFTISRDNAKNTVYLQMNSLKPEDTAVYYCAAADYFRSYWGQGTQVTVSS”, for which the “polyreactivity (PSR sort gate)” value is reported as “low polyreactivity”.
Turning to “QVQLVESGGGLLQAGGSLRISCAASGSTFGVYAMGWYIPAPGKERELVAVIRRGGGTDYADSVKGRYTISRDNAKNTVYLQLDSLIPVDTAVYSCAATVVRTGYLTLEMDYWGQGTQVTVSA”, the “polyreactivity (PSR sort gate)” value is “low polyreactivity”.
The result for “QVQLVESGGGLVQAGGSLRLSCAASGFIFSVYAMGWYRQAPGKERELVAAITESGGSTYYADSVKGRFTISRDNAKNSVYLQMNSLKPEDTAVYYCAAAIRPYEYEYWGQGTQVTVSS” reads “low polyreactivity”; that for “QVQLVESGGGLVQAGGSLRLSCAASGSYAKGWYRQAPGKERELVAYINGRDGSTYYADSVKGRFTISRDNAKNTVYLQMNSLIPEDTAVYYCNADYVLQYNYWGQGTQVTVSS”, “low polyreactivity”.
The result for “QDQLVESGGGLVQARGSLRLSCAASGSIFVHNAMGWYRQAPGKEREFVAAITWSGGSTYYADSVKGRFTISRDYAKNTVYLQMNSLKPEDTAVSYCAAEDVAAQWAYESPTSYWYYYWGQGTQVTVSS” reads “low polyreactivity”.
The same measure for “QVQLVESGGGLVQAGGSLRLSCAASGLTLAYAMGWYRQPPGKEREFVAAISSSGGSTYYADSVKGRFTISRDNAKNTVYLQMNSLKPEDTAVYYCAARTNPGRYYYRFSGGSWGQGTQVTVSS”: “high polyreactivity”; for “QVQLVESGGGLVQAGGSLRLSCAASGFTFSFYAMGWYRQAPGKERELVAGISKRGGSTYYADSVKGRFTISRDNAKNTVYLQMNSLKPEDTAVYYCAKRSSLYRSLVDYWGQGTQVTVSS”: “high polyreactivity”; for “QVQLVESGGGLVQAGGRLRLSCAASGSIFQSYALAWYRQAPGKERELVAVITGGGGSTYYADSVKARFTISRDNAKNTVYLQMNSLKPEDTAVYYCNADFPSFGVIYSTRKDDSWGQGTQVTVSS”: “low polyreactivity”.
For the sequence “QVQLQESGGGLVQAGGSLRLSCAASGYISHADEMGWYRQAPGKEHELVASISNGGSTNYADSVKGRFTISRDNAKNPVNLQMNSLKSEDTAVYYCAALTGQVAIHYYWGQGTQVTVSS”, the “polyreactivity (PSR sort gate)” value was “low polyreactivity”.
The result for “QVQLVESGGGLVQAGGSLRLSCAASGFIFSVNTMGSYRQAPGKERELVAAISGSGGSTYYADSVKGRFTISRDNAKNTVYLQMNSLKPEDTAVYYCAARYTVTYDYWGQGTQVTVSS” reads “high polyreactivity”; that for “QVQLVQSGGGLLQAGGSLRLSSAASGYTFGYYARGCYREAPGQERELVAAITSGGTTNYADTVKGRFTISRDNAKNTVYLQINSLKPEDTAVSYCNAVCTFVRYWTDGRDGVTYDYWGQGTQVTVSS”, “low polyreactivity”; that for “QDQIVESGVGLVQAGGTLRLSCAASGFTFRRYVMGWYRQAPGKERELVAAISQSGGSTYYADSVKGRFTISRDNAKNTVYLQMKSLKPEDTAVYYCAATGAFWYPYDYWGQGTQVTVSS”, “high polyreactivity”.
The same measure for “QVQLVESGGGLVQAGGSLRLSCAASGRTFYYYAMGWYRQAPGKEREFVASISYSGARTYYADSVKGRFTISRDNAKNTVYLQMNSLKPEETAVYYCAAGYPLGGDYWGQGTQVTVSS”: “high polyreactivity”; for “QVQLVESGGGLVQAGGSLRLSCAASGRIFGSYAMGWYRQAPGKERELVAAISWRGTSTYYADSVKRRFTISRDNAKKTVYLQMNSLKPEDTAVYYCAARGLWPYDYWGQGTQVTVSS”: “low polyreactivity”; for “QVQLVESGGGLVQAGGSLRLSCAASGSTFDRNAMGWYRQAPGKERELVASITWTGGSTYYADSVKGRFTISRDNAKNTVYLQMNSLKPEDTAVYYCNADLLYLDYLYGLDYWGQGTQVTVSS”: “high polyreactivity”.
The result for “QVQLVESGGGLVQAGGSLRLSCAASGSTLRRYAMGWYRQAPGKERELVAAITYRSGSTYYADSVKGRFTISRDNAKNTVYLQMNSLKPEDTAVYYCAKVGYVSKYWFAGDYWGQGTQVTVSS” reads “high polyreactivity”; that for “QVQLVESGGGLVQAGGSLRLSCAASGSIFSGYAMGWYRQAPGKERELVAAINWTGDSTYYADSVKGRFTISRDNAKNTVYLQMNSLKPEDTAVYYCAAIRRQKGLWDYYYWGQGSQVTVSS”, “low polyreactivity”.
